# Experimental data reported in the DeepSol protein solubility set.
# Experiment: soluble on expression in E. coli; label from the status in PepcDB or PDB records
row,Sequence,soluble on expression in E. coli
1,MAHHHHHHMSMHSVEGALCSCSMCKLTCHTASVYANQRRASKHVMLARPSPFYAETGGLPPEVPQLAPPPERLVVCPVFEEYGFCPFGRICFLPHSGEKTPLVERKGTSREELERLREKARLQEEEELWSCDVCGFDGIDENTQGRVGEMYYYRNCPRCSLMCYFPHIAYLVDAIFDASGDDYQIFKDEIDRCRRELPDILKVPLTYEAHRIASTAFAWSLVSPKHVKDALDAAYRALPEMSCIVSVGSGVGYVEHIFNRVANGVPAAPRDPDPALGISSFEGVHACFYPKKKLPIYAFDEVALNCPYSVCVSLGGPVALLSLQCPTSVLLLSWPPFGSPKEEQSSMAFEALEYFTQAGGKVVIYIGDVASTGDWRFHELLYTHYKLVKDYTVRREVRRWSPQDMGLVYAGNDTIGVYKLRSERLPSPQWQWDGRSS,not soluble
2,MVLLGRGLLAVGRVAFRRPMIVRHLQYDAFVDRHIGPRRLEQQQMLDFIGYKDLDDLTGTNVPNMIKAEKALELPAPLDEYKMLKELEAIAAQNKIYRSYIGMGYYDTIVPAVISRNILQNIGWISQYTPYQAEISQGRLESLLNFQTMIAEMTGLPTTNASLLDEATASAEAVALAARTTKRNKIVVDSFCHPQNLDVIRTRSGPLGIDIEVSDSIEGYAFDDKVAAVVVQYPNTEGRIHQFDELIESAHKNKSLVIMVCDLLSLTILRSPGDLGADIAVGSAQRFGVPLGYGGPHAGFMAVAKHDAKNALGRNIPGRIIGVTKDANGNRALRLALQTREQHIRRDKATSNICTAQALLANMSAMYAVYHGPQRLTEIARGVHKSTAYLAYHLRNAGHEIVHKDYFDTLKIRLKDKAALEETKKRAEEMKMNFRYYEDGDIGVSLDETVKSEDLMDIIYTLNGATEKDVTKLREERWEVACPLIGNSPHSRSSLFLQHPVFNTHQSEQQLVRYMKRLENKDVSLVHSMIPLGSCTMKLNASAELIPITWPTLSSIHPFAPVEQAKGYSRIFGDLEKWLCEITGYDNFSLQPNSGANGEYAGLLAIRNYLIHKGEEQRNICLIPTSAHGTNPASAQMANMKVVVVDSDHHGNINYKDLAAKAEKYSNQLAAIMVTYPSTHGVFESSIRDVCDKVHEHGGQVYLDGANMNAQVGLCRPGDYGSDVSHLNLHKTFCIPHGGGGPGVGPIGVKKHLAPFLPGHSVVPVDGRKVGSVASAPYGSASILAITWAYIRMMGPVGLREASQVAILNANYMAKRLENDYRIVYKDEQGLVAHEFIMDCKPFKKHGIEVVDIAKRLMDYGFHSPTMSWPVHDCLMIEPTESEDKAEMDRLVEALLSIREEIRQVENGSLDKHLNPLKMAPHTLEKVTSDNWNMPYSRELAAFPKPWCTHKAWPTVGRVDDQYGDRNLVCTCPPIESYQ,not soluble
3,GPGSMKRADGRESPRAVRAIHVATNVLANCHSSACVEIGKTRVLCGVRPPQHLVQEYRGTRGRVSCQVHRSLASSSNLDNSGDRDMALALEGVAEQAVVLERIPQLLVGVLIEVVHDDGALWDAATTALCVALTAGGVEVYDTFSACSAALRHDGAIIVDLTREEAAAAMASVVVCSGLSLGGVYYCCHKGACEATTMSQLVQAATKGLQVRKVPLLEQIRNQLV,soluble
4,TNHHQRALSYLQYGLDQGEGFIVITGPIGTGKTTIARNLLANIADENIVAAQLVTTKLTPNELLDLVAAEFKITVTGNSKADVLQSIEKFLINLNKQGKRALLLVDEAQNLPVETVEELRMLSNFQLDNKPLIQSFLLGQEELKAIISAPDMEQFRQRIIASAHLKP,not soluble
5,MGSDKIHHHHHHMFREDRKGLIVVEVENQDLIKTIQVKFPRLSKGQKLIAEYILKHYDKAAFLTAAKLGSSVGVSESTVVRFANELGFSGYPKLQKALQELIKNKLTTVQRIELSNDFIDQESTLKSVLKSDMENIRYTLEKINHKTFDDVVDSIFSAKRIYILGLRSSTPIAEFLGFYLNLILDNAKIISYGVSDIFEQMMNVAKGDLVIGIGFPRYAARTIEALDYAQNNEATVVAITDSLLSPLAARANHTLIAQSNMASFVDSLVAPLSVVNALIIAVGLREKDKISSTFSKLEHIWQEYEVYSYKERRRD,not soluble
6,MGSDKIHHHHHHMRRTYLTLSEEDKDYLKTLSKKRTIQAQIVDRAKILLYKSDGMTFNAIAEKLAISSATVRLCVSKYYEGGIEKALFDTQRPGRPSEITDDAKAWIINLACQRPVELGYAQELWTLNALHKHIQKHAEEAGYPRLTTITKPYIQKFLKEQDIKPFKIRYYCEKRDQDFESKMHEVLLVYKQIEMQFDENGTLIVPDDYKLTITVSYDEKPGIQAISNTAPDLRPTTENGEVYRDAEYKRLGTLSLLAGIDLLTGEAIPLVSETHKSSDFIEFLKIRDKKYPLQDTIRIILDNHSAHTSKETQRFLDTMPKGRFKFVFTPKHGSWLNMIESFFSKMTKQMLRGIRVKTKQELEERIYQYFEEVNREPVVYHWKYKMDEIEKKKCCTELWMPFSAH,not soluble
7,MAHHHHHHMVFNQDHHEKECADAFVLARDGMSDFEGEKIERAFRGVTAALRFLDYQETTGTSTRSPTGSNSNAEQRSSGSHEPLVSGEDTNYHHVVCLVRSLDGEKENTPVN,not soluble
8,SVTDNNGAVKFPQLCKFCDVRFSTCDNQKSCMSNCSITSICEKPQEVCVAVWRKNDENITLETVCHDPKLPYHDFILEDAASPKCIMKEKKKPGETFFMCSCSSDECNDNIIFSEEYNTSNPD,soluble
9,MAHHHHHHMYTRLTELFFISHTFRGRMSSTFCLQPSMMRPLLEQQRRFTSIISRFSSTVTSHVSSLADTHFMPLSEQCITEPRRPYPRRVSMQENLAERLTLQRSLRAHLVPLQVIVSKEKLYIELVWPSAALRAVENQKETMAHTVKGAAADGDDDGNDAALHHAMESPARTVSSGLSQRRPLEEHRTRFLAEFLRAYSPSTDVIGSDVLIYGRRGITITDVIPVGNYALRIVFSDGHSGGIYPYEYLFHLGCEKYSRMREYIRRLRAKHKSRDPPKRAPSQRLSRSRSAQRAEGRHMNSHGQDDQ,not soluble
10,MKTLIARHKAGEHIGICSVCSAHPLVIEAALAFDRNSTRKVLIEATSNQVNQFGGYTGMTPADFREFVFTIADKVGFARERIILGGDHLGPNCWQQENADAAMEKSVELVKAYVRAGFSKIHLDASMSCAGDTIPLAPETVAERAAVLCFAAESVATDCQREQLSYVIGTEVPVPGGEASAIQSVHITHVEDAANTLRTHQKAFIARGLTEALTRVIAIVVQPGVEFDHSNIIHYQPQEAQALAQWIENTRMVYEAHSTDYQTRTAYWELVRDHFAILKVGPALTFALREAIFALAQIEQELIAPENRSGCLAVIEEVMLDEPQYWKKYYRTGFNDSLLDIRYSLSDRIRYYWPHSRIKNSVETMMVNLQGVDIPLGMISQYLPKQFERIQSGELSAMPHQLIMNKIYDVLRAYRYGCAE,not soluble
11,MGSDKIHHHHHHQNQPLRITIDEGIIEPLPYAAPNFVPDSPAAAEYAAEIARVLAADLTGSGLFREIPSTAYISQVTSFDAPVQFADWKAINAQALITGAVSVSGNRLTVRFRLWDVFAGAELGSGLQFAGTTDGWRRMSHKVADAVYSRITGESGYFDSRVAFVSESGPKDQRRKRLAIMDYDGANVQYLTDSSSIVLAPRFSPTGDRVLYTSYQGGFPRIHILDVGQVQQRVLQSQDGTMSFAPRFSPDGQTVLFSLAQGGNTDLYAMNIASGQSTRLTSAPSIETAPSYAPDGSRIVFESDRSGTPQLYVMSAAGGEATRISFGQGRYGTPVWSPRGDLIAFTKQSKGRFHIGVMRADGSEERLLTASFLDEGPTWSPNGRVIMFTRETQGASGRAALYSVDISGRNLRPVRTPDGGSDPSWSPLQK,not soluble
12,MGSDKIHHHHHHMQNPFTLTFGRSPLESVDRPVQINEIIENFTADTINQQMFIITGVRGSGKTVMMTEISHRLRENDDWVVIELNPATELLPAMLSKLNSDNICAGLIKSAKLDLSFFGFGVSIEGTQPITDAETAIIKILERLKKSGKRLLITIDEMTNSEYMKVFAGAFQIFVRQELPVFLLGTGLYENIEELQNEKSLTFLYRAPKIQLKPLNNAAIINKYKTIFNISPEKAAQMAGLTKGYPFAFQVLGYLTWNNGGDYNGILGEYEQYLSEFVYDKIWSELSQKDRMVAKGIADVQSGKIKEIRDAIGMETNEFNPYRKRLIKKGIVSGEIRGYVYFTLPLFEEYVIENY,not soluble
